Here are results for 1 substance from patent publication US20030049729A1.

The target in this assay is plasminogen. Description: cell-based or functional assay.

As to “Bacteriophages which harbored K2S on gpIII (K2S-phi; printed with a garbled symbol as K2S-?) (from UniProt P00750 209-562)”, the fibrinogen-dependent enzymatic activity was < 0.25 IU/ml.
